Measured values: patent publication US20230105029A1 (CHIA TAI TIANQING PHARMACEUTICAL GROUP, published 2023)
Like-named read-outs stand apart in the source and are kept apart here.

T1: marmoset monkey IL4Rα-his protein (marmoset monkey)
T1 construct: Custom made by Sino biological; no cleavage site stated; also called cal-IL4Rα-his; Cal-IL4Rα
T1 chain: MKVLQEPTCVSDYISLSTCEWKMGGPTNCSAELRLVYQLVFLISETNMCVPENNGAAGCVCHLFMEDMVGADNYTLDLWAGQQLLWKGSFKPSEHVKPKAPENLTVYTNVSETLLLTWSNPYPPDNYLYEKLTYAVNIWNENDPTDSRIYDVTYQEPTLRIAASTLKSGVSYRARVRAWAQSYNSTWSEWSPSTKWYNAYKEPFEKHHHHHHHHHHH


Columns and labels:
[1] = molecular target: T2, recombinant human IL4Rα-his protein (in house made) (human, UniProt P24394 26-232, limits assumed); assay: competitive ELISA: antibody mixed with biotin human IL4Rα-his, competitor plate-coated Benchmark
T2 construct: also called Human IL4Ra-his

[2] = molecular target: T3, human IL4Rα expressed on 293F-IL4Rα cells (human, UniProt P24394 26-825); assay: flow cytometry, 293F-IL4Rα cells
T3 construct: whole, on cells; also called cell surface human IL4Rα
Method: Then, 2×10⁵ cells per well in 96 well-plates were incubated in 100 μL of the anti-IL4Rα antibodies or controls of various concentrations (starting at 80 nM with a 4-fold serial dilution) in FACS buffer for 40 minutes on ice. […] Following an incubation of 40 minutes at 4° C. in dark, cells were washed three times and resuspended in FACS buffer. Fluorescence was measured using a Becton Dickinson FACS Canto II-HTS equipment. Data was analyzed using Graphpad Prism software and EC₅₀ values were reported.

[3] = molecular target: T4, cynomolgus monkey IL4Rα-his protein (cynomolgus monkey, UniProt A0A2K5V580 33-239); assay: indirect ELISA, coated cyno IL4Rα-his
T4 construct: Bought protein; also called Cynomolgus IL4Rα; Cyno-IL4Rα-his; not shown: his tag

[4] = molecular target: T3, human IL4Rα expressed on 293F-IL4Rα …; assay: flow cytometry, blocks biotin-IL4 binding to 293F-IL4Rα cells
Method: Then, 1×10⁵ cells per well in 96 well-plates were incubated in 100 μL of the anti-IL4Rα antibodies or controls of various concentrations (starting at 80 nM with a 4-fold serial dilution) in FACS buffer for 40 minutes on ice. The plates were washed twice with FACS buffer, and added and incubated for 40 minutes at 4° C. in dark with 100 μl/well 1.67 nM biotin-labeled human IL4 protein (Sino biological inc., Cat #11846-HNAE). The plates were washed twice with FACS buffer, and then added and incubated for 40 minutes at 4° C. in dark with 100 μl/well R-Phycoerythrin Streptavidin (1:500 dilution in FACS buffer, Jackson Immunoresearch, Cat #016-110-084). Cells were washed twice and resuspended in FACS buffer. Fluorescence was measured using a Becton Dickinson FACS Canto II-HTS equipment. Data was analyzed using Graphpad Prism software and IC₅₀ values were reported.

[5] = molecular target: T2, recombinant human IL4Rα-his protein (in …); assay: capture ELISA: antibody captured on anti-IgG Fc plate, biotin human IL4Rα-his detected
[6] = molecular target: T3, human IL4Rα expressed on 293F-IL4Rα …; assay: flow cytometry on 293F-IL4Rα cells
[7] = molecular target: T2, recombinant human IL4Rα-his protein (in …); assay: competitive ELISA, blocks biotin-IL4 binding to coated IL4Rα-his
Method: Serially diluted anti-IL4Rα antibodies or the controls (starting at 80 nM with a 4-fold serial dilution) in 2.5% w/v non-fatty milk in PBST, 100 μl per well, were added to the IL4Rα bound plates, and incubated with the human IL4Rα-his proteins at 37° C. for 40 minutes. Plates were washed 4 times using wash buffer, and then added and incubated for 40 minutes at 37° C. with 100 μl/well of 0.56 nM biotin-labeled human IL4 protein (Sino biological inc., Cat #11846-HNAE). Plates were washed again using wash buffer. Thereafter, the plates were added with 100 μl/well of streptavidin conjugated HRP (1:10000 dilution in PBST buffer, Jackson Immunoresearch, Cat #016-030-084) and incubated for 40 minutes at 37° C. Plates were washed again using wash buffer. Finally, TMB was added and the reaction was stopped using 1M H₂SO₄, and the absorbance was read at 450 nm. Data was analyzed using Graphpad Prism software and IC₅₀ values were reported.

[8] = molecular target: T1, marmoset monkey IL4Rα-his protein; assay: indirect ELISA, coated cal-IL4Rα-his
[9] = molecular target: human IL4Rα expressed on HEK293T-IL4Rα-STAT6-STAT6LUC-LB2 cells (human, UniProt P24394 26-825); assay: cell-based or functional assay
[10] = molecular target: T4, cynomolgus monkey IL4Rα-his protein; assay: indirect ELISA on coated cynomolgus IL4Rα-his
[11] = molecular target: T2, recombinant human IL4Rα-his protein (in …); assay: SPR (Biacore), antibody captured, IL4Rα-his flowed
[12] = molecular target: T3, human IL4Rα expressed on 293F-IL4Rα …; assay: flow cytometry on 293F-IL4Rα cells, blocked ligand biotin human IL4
[13] = molecular target: T2, recombinant human IL4Rα-his protein (in …); assay: competitive ELISA, blocks biotin-IL4Rα-his binding to coated Benchmark (competitor)
Method: The ability of the anti-IL4Rα antibodies of the disclosure to block benchmark-human IL4Rα binding was measured in a competitive ELISA assay. Briefly, the benchmark was coated on 96-well micro plates at 2 μg/mL in PBS, 100 μl per well, and incubated overnight at 4° C. The next day, plates were washed with wash buffer (PBS+0.05% w/v Tween-20, PBST), and blocked with 5% w/v non-fatty milk in PBST for 2 hours at 37° C. tiring plate blocking, the anti-IL4Rα antibodies of the disclosure or controls were diluted with biotin labeled human IL4Rα-his proteins (prepared in-house with SEQ ID NO: 57, 0.55 nM in 2.5% w/v non-fatty milk in PBST), starting at 100 nM with a 4-fold serial dilution, and incubated at 25° C. for 40 minutes. After plate washing, the antibody/IL4Rα-his mixtures were added to benchmark coated plates, 100 μl per well. After incubation at 37° C. for 40 minutes, plates were washed using wash buffer. Then the plates were added and incubated with 100 μl/well streptavidin conjugated HRP for 40 minutes at 37° C. to detect biotin-labeled human IL4Rα-his bound to plates. Plates were washed again using wash buffer. Finally, TMB was added and the reaction was stopped using 1M H₂SO₄, and the absorbance was read at 450 nm. Data was analyzed using Graphpad Prism software and IC₅₀ values were reported.

[14] = molecular target: T2, recombinant human IL4Rα-his protein (in …); assay: capture ELISA, biotin-IL4Rα-his
[15] = molecular target: T1, marmoset monkey IL4Rα-his protein; assay: indirect ELISA on coated cal-IL4Rα-his
[16] = molecular target: T2, recombinant human IL4Rα-his protein (in …); assay: SPR (Biacore), antibody captured, IL4Rα-his flowed; remark: listed apart in the source
[17] = molecular target: T2, recombinant human IL4Rα-his protein (in …); assay: competitive ELISA: coated human IL4Rα-his, blocked ligand biotin human IL4

IC50 [1] [pM]	EC50 [2] [pM]	EC50 [3] [pM]	IC50 [4] [pM]	EC50 [5] [pM]	EC50 [6] [pM]	IC50 [7] [pM]	EC50 [8] [pM]	Inhibition on IL4 induced STAT6 phosphorylation (IC50, nM) [9] [nM]	Inhibition on IL13 induced STAT6 phosphorylation (IC50, nM) [9] [nM]	EC50 [10] [pM]	Kd [11] [pM]	IC50 [12] [pM]	IC50 [13] [pM]	EC50 [14] [pM]	EC50 [15] [pM]	Dissociation % [16] [%]	End (RU) [16] [RU]	Kd [16] [pM]	Start (RU) [16] [RU]	Binder	further results
171	390	680	580	61.6	390	2170	550	0.64	0.73	677	642	578	170	60	555	0.8	50.5	< 65.4	50.1	huC2C1A1A1-V14 (antibody, human IgG4 S228P, kappa, V domains shown, Humanized, human IgG4/kappa) VH: EVQLVESGGGLVQPGGSLRLSCAASGFTFSTYGMSWVRQAPGKGLVWVATINSNGGSTSYPDSVKGRFTISRDNAKNTLYLQMNSLRAEDTAVYYCARFFRFRNAMDYWGQGTLVTVSS VL: DIQMTQSPSSLSASVGQRVTITCRTSENIYSYLAWYQQKQGKPPRFLIYNAKTLAEGVPSRFSGSGSGTEFTLTITSLQAEDFGVYYCQHYYGPPTWTFGPGTKLEIKR	koff [16]: < 1e-05 s⁻¹; kon [16]: 153000 M⁻¹ s⁻¹; IC50 [17]: 2170 pM
159	310	520	500	47.4	311	2030	410	0.61	0.6	517	447	502	160	50	412	0.29	69.2	< 43.5	69	huC2C1A1A1-V15 (antibody, human IgG4, V domains shown, Humanized, human IgG4/kappa) VH: EVQLVESGGGLVQPGGSLRLSCAASGFTFSTYGMSWVRQAPGKGLVWVATINSNGGSTSYPDSVKGRFTISRDNAKNTLYLQMNSLRAEDTAVYYCARFFRFRNAMDYWGQGTLVTVSS VL: DIQMTQSPSSLSASVGDRVTITCRTSENIYSYLAWYQQKPGKAPKFLVYNAKTLAEGVPSRFSGSGSGTDFTLTISSLQPEDFATYYCQHYYGPPTWTFGQGTKVEIKR	koff [16]: < 1e-05 s⁻¹; kon [16]: 230000 M⁻¹ s⁻¹; IC50 [17]: 2030 pM
